Test results: article PMC4335062, “Data-Driven Prediction and Design of bZIP Coiled-Coil Interactions” (PLoS Computational Biology, 2015)
“And” between values parts separate entries of the source, which are not always exact repeats. Equal entries are not always repeated. Where no end group is shown, it is not given here.

B1: ATF5-d1 labeled at the C-terminus (designed binder)
chain: GESKEYKKGSGSKRIAYLRQRIAELRNENHVLESRIQRMEKEKDALQQDRDHLEYELGC(Rhodamine Red C2‑maleimide)
modifications: not fully specified
B2: ATF4-d1 labeled at the C-terminus (designed binder)
chain: GESKEYKKGSGSNQIKTLRTRLSKLRKDNLQLEKDIANLERKAKDLRAEKEQLEYELGC
modifications: also: C59 label by assay: Rhodamine Red C2-maleimide or fluorescein-5-maleimide
notes: solubility linker after the His6 tag; added to the C-terminus for labeling; one molecule for the rhodamine- and the fluorescein-labelled form; the assay tells which label stood there; also called ATF4-d1-Rhodamine; ATF4-d1-FITC; source: E. coli RP3098, purified (Ni-NTA under denaturing conditions, reverse-phase HPLC)

Assays:
[1] = target: HLF (human) (UniProt Q16534); experiment: FRET or BRET; direct-binding FRET in 384-well plates; rhodamine-labelled design (acceptor) titrated 0 to 1 uM into 10 nM fluorescein-labelled bZIP (donor); 150 mM KCl, 50 mM potassium phosphate pH 7.4, 0.1% Tween-20, 0.1% BSA; 37 °C
Chain of HLF (human) (Q16534 whole entry): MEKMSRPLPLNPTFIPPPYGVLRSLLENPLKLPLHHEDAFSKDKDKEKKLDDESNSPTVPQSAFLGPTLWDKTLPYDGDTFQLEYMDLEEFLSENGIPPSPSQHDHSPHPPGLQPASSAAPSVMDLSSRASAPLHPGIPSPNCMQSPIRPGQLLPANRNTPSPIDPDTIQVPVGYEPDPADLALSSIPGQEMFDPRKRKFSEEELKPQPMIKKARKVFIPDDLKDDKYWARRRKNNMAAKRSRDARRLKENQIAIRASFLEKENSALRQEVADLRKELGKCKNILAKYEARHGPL

[2] = target: FOS (Homo sapiens, UniProt P01100); experiment: as above
Chain of FOS (P01100 whole entry): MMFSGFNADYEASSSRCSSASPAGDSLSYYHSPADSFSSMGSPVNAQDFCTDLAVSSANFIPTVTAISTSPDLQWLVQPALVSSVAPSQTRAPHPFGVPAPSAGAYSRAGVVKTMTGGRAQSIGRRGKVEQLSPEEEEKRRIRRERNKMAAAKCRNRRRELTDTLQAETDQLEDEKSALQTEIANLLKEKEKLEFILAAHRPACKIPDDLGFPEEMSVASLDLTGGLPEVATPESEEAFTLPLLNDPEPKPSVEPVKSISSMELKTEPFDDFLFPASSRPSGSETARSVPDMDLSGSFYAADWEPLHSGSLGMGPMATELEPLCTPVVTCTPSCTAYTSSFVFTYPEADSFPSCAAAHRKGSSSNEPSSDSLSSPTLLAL

[3] = target: JUN (Homo sapiens, UniProt P05412); experiment: as above
Chain of JUN (P05412 whole entry): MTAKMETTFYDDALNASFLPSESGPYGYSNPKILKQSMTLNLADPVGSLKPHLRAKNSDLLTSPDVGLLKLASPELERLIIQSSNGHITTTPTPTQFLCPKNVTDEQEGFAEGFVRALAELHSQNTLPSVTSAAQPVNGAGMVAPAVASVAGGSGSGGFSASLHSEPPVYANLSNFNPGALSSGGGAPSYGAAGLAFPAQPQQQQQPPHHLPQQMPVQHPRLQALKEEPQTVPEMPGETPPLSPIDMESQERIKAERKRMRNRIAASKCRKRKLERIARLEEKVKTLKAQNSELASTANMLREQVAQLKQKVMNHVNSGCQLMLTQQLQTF

[4] = target: BACH2 (Homo sapiens, UniProt Q9BYV9); experiment: FRET or BRET; direct-binding FRET in 384-well plates; rhodamine-labelled design (acceptor) titrated 0 to 1 uM into 10 nM fluorescein-labelled bZIP (donor); 150 mM KCl, 50 mM potassium phosphate pH 7.4, 0.1% Tween-20, 0.1% BSA; 4 °C
Chain of BACH2 (Q9BYV9 whole entry): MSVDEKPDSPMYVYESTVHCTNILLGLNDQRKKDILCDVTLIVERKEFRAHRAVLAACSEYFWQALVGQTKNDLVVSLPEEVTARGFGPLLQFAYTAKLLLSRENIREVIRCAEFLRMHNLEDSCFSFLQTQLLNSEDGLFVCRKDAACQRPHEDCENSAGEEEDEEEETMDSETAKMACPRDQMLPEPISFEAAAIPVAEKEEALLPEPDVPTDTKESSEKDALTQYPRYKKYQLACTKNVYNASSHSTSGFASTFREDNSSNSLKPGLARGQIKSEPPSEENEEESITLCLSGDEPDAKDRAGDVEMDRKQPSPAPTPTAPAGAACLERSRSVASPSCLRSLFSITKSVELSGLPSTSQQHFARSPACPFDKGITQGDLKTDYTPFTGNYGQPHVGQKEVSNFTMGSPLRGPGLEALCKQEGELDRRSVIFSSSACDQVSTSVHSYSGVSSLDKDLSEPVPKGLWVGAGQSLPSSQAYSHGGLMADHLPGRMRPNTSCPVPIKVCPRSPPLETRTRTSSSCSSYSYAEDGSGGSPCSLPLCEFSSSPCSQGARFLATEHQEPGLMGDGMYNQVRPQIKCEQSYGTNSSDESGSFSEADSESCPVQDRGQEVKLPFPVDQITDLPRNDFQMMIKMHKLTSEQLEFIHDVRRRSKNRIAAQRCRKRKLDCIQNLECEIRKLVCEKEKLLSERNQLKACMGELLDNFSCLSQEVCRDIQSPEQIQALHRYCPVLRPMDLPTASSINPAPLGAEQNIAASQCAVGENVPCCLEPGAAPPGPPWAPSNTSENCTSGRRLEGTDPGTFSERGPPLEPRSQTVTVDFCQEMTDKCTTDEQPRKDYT

[5] = target: Activating Transcription Factor (ATF) 3 (human) (UniProt P18847); experiment: as above
Chain of Activating Transcription Factor (ATF) 3 (human) (P18847 whole entry): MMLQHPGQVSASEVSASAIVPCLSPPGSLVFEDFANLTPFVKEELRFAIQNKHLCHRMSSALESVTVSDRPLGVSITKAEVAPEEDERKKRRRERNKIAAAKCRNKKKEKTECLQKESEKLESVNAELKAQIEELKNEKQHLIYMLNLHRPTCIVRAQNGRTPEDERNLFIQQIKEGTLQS

[6] = target: X-box binding protein 1 (human) (UniProt P17861); experiment: FRET or BRET; direct-binding FRET in 384-well plates; rhodamine-labelled design (acceptor) titrated 0 to 1 uM into 10 nM fluorescein-labelled bZIP (donor); 150 mM KCl, 50 mM potassium phosphate pH 7.4, 0.1% Tween-20, 0.1% BSA; 37 °C
Chain of X-box binding protein 1 (human) (P17861 whole entry): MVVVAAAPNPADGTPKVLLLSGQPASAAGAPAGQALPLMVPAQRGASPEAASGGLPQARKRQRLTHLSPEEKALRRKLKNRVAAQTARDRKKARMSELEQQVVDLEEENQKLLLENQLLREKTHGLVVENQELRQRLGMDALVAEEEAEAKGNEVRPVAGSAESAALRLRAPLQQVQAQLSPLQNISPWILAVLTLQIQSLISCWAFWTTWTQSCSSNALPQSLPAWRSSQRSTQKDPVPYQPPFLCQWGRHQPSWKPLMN

[7] = target: NFE2L3 (human) (UniProt Q9Y4A8); experiment: as above
Chain of NFE2L3 (human) (Q9Y4A8 whole entry): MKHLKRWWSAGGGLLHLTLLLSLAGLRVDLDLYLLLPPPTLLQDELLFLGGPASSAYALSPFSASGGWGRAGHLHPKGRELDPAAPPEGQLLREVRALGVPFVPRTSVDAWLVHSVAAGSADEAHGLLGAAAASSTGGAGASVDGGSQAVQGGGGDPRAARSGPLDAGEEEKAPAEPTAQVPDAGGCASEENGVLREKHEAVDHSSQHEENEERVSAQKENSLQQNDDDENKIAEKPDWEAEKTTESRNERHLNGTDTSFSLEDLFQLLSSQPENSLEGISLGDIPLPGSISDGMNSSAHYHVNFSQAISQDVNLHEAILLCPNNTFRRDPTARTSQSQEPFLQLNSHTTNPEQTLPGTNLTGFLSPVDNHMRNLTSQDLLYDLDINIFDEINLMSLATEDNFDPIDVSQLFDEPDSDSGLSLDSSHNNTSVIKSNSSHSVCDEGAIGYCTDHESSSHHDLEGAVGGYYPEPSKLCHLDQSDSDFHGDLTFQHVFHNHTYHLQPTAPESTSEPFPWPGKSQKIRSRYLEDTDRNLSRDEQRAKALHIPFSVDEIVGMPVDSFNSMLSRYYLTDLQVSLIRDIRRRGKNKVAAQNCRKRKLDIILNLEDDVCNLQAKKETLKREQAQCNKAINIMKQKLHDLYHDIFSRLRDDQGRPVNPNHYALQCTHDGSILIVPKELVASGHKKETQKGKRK

[8] = target: Activating Transcription Factor (ATF) 3 (human) (UniProt P18847); experiment: as above
[9] = target: T1, ATF6B (Homo sapiens, UniProt Q99941); experiment: as above
T1 sequence (Q99941 whole entry): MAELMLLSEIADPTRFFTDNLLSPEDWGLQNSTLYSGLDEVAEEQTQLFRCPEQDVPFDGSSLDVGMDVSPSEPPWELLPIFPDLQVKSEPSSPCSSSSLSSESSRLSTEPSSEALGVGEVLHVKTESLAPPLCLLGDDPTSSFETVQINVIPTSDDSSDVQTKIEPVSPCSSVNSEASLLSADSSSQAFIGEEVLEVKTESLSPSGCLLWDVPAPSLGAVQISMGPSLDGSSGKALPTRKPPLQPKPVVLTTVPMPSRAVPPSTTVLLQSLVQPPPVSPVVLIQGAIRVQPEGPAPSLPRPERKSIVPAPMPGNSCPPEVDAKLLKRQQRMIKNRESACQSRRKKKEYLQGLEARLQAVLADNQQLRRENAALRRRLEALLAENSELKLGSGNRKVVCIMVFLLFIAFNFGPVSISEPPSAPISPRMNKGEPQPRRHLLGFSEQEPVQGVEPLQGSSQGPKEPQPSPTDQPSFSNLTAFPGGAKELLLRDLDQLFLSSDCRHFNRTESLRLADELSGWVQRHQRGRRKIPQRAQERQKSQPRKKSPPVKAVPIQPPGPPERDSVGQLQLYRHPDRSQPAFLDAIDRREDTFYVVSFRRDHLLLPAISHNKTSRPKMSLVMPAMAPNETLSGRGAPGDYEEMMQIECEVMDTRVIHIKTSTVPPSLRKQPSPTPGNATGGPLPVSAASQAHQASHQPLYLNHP

[10] = target: T2, MAFG (Homo sapiens, UniProt O15525); experiment: as above
T2 sequence (O15525 whole entry): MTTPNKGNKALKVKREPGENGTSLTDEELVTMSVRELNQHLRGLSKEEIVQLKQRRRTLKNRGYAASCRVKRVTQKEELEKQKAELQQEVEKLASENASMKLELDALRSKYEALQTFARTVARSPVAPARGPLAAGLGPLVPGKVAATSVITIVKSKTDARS

[11] = target: MAFF (human) (UniProt Q9ULX9); experiment: as above
Chain of MAFF (human) (Q9ULX9 whole entry): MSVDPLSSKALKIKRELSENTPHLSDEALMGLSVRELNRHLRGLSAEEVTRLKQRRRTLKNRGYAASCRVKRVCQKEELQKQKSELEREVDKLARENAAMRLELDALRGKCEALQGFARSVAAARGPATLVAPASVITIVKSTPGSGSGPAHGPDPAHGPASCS

[12] = target: NFE2L3 (human) (UniProt Q9Y4A8); experiment: FRET or BRET; direct-binding FRET in 384-well plates; rhodamine-labelled design (acceptor) titrated 0 to 1 uM into 10 nM fluorescein-labelled bZIP (donor); 150 mM KCl, 50 mM potassium phosphate pH 7.4, 0.1% Tween-20, 0.1% BSA; 4 °C
[13] = target: NFIL3 (human) (UniProt Q16649); experiment: as above
Chain of NFIL3 (human) (Q16649 whole entry): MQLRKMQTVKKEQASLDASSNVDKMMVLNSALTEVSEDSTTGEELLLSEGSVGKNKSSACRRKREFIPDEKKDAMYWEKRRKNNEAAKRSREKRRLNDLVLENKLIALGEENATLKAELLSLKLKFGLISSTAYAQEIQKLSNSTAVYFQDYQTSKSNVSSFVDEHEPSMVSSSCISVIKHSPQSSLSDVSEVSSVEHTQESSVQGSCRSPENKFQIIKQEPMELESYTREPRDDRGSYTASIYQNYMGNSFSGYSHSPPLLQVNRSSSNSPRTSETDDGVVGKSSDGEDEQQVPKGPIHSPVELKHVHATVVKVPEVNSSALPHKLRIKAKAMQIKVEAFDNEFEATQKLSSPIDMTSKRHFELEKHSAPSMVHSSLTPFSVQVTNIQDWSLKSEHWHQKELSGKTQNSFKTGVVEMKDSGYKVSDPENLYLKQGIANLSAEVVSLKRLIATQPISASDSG

[14] = target: T1, ATF6B; experiment: as above
[15] = target: T2, MAFG; experiment: as above
[16] = target: MAFF (human) (UniProt Q9ULX9); experiment: as above
[17] = target: MAF (Homo sapiens, UniProt O75444); experiment: as above
Chain of MAF (O75444 whole entry): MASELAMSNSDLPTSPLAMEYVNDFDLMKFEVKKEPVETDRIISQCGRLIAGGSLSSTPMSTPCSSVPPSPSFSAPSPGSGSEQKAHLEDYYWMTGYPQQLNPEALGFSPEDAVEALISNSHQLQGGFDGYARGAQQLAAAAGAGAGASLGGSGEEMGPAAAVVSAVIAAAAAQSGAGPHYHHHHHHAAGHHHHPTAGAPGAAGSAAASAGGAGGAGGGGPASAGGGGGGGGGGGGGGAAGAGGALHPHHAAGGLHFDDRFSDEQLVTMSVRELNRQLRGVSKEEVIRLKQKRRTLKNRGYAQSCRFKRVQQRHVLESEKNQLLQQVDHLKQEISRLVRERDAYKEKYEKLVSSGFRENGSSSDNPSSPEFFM

Row | Kd [1] [nM] | Kd [2] [nM] | Kd [3] [nM] | Kd [4] [nM] | Kd [5] [nM] | Kd [6] [nM] | Kd [7] [nM] | Kd [8] [nM] | Kd [9] [nM] | Kd [10] [nM] | Kd [11] [nM] | Kd [12] [nM] | Kd [13] | Kd [14] [nM] | Kd [15] [nM] | Kd [16] [nM] | Kd [17] [nM] | Binder
1 | > 5000 | > 5000 | > 5000 | > 5000 | > 5000 |  |  |  |  |  |  |  |  |  |  |  |  | B1
2 |  |  |  |  |  | > 5000 | > 5000 | > 5000 | > 5000 | > 5000 | 327 | 1000 | 22.8 nM and 23.3 nM and 22.6 nM | 1000 | 1000 | > 5000 | > 5000 | B2
